# Data: the DeepSol protein solubility set
# Assay: soluble on expression in E. coli; label from the status in PepcDB or PDB records
row,Sequence,soluble on expression in E. coli
1,MKVCKFEKMKEEDEIRQVINYILKEHPYVVVVPTLTQLQEWLQDISISWFHEEDSASHTTINNIEEYCCTLADHLITDLPLNTDIKKYIRECIEKMHKLVEDKADLLIDKIIKAEIYRLSGELFACCLRQHGLNARTLDTGTFMQMNLERKPDIPYIQESIRQYINENRDTDIFIAPLSLCKNVYGEIDFMNEKRNDYYATVLASIFEADEIILSTELTNIYANRNCAREQHSLTYTEAEQLINSGVHLIYTDCITLAARSNIVIRLIDTHDLETERLYISSHDTESSVKAIIVQDSVTFVRFTSLNVLPGYLLMGKLLEVINKYQINVISMASSNVSVSMILTASRDTLRIIQRELHKYTEMVVDENMSVIHIIGSLHWERTQLESNIMETIRHIPISLISYGGSDHCFTISVHTADKKQLLNSLSQRFLERLSALEHHHHHH,not soluble
2,GPGSTRCQRERLLYVRRFDPVRGYHLRAAEDISVGTIIFQDECRPVRLCTKPYALQHFSKADYVDFQHNAWPVGRDGHYYALWDHDPAQWRAFNHSCEPNMSFAPMRSLDVVALRNIPKGEELTMDYRQFMDSTMPGFQCNCGTEKCEGFVSPGSLVDSPTAKIASQPTVALRHNIAVRLNPI,not soluble
3,MAHHHHHHMSSVDSTHRLLHPCTGILPSASLHGRHSIALAPPPTLPPPPLLHTRIPIHIHIIHYATLNPATFLDHSTQLDYEMPTRFKKCRHQRGSTFCGYGRVGKHRKHESGRGNAGGMHHHRINFDKYHPGYFGKLGMDHYHRKKNPMWKPTINLNNLSRLIAAEEAAKAAKGGTLPVVDLQSSGYAKLLGNGHIQVPCIVKARYVSKLADKKIRKAGGAVVLQA,not soluble
4,MGHHHHHHSHMSQQRPDRIKQMLHYLWQHRHLSTQQAMELFGYAEATVRRDFQYIVNQYPGMIRGHGCLDFDDSTDDKEYVFDVKRTLQSVAKREIAALARTMIKDGDCFFLDSGSTCLELAKCLADARVKVICNDIKIANELGCFPHVESYIIGGLIRPGYFSVGESLALEMINAFSVERAFISCDALSLETGITNATMFEVGVKTRIIQRSREVILMADHSKFDAVEPHAVATLSCIKTIISDSGLPETIAQRYQRAGCQLFLPHSIK,soluble
5,AQAEASSAQAAQQKNFNIAAQPLQSAMLRFAEQAGMQVFFDEVKLDGMQAAALNGSMSVEQGLRRLIGGNPVAFRLQPQGQIVLSRLPTANGDGGALALDSLTVLGAGGNNANDWVYDEPRSVSVISREQMDNRPARHAADILEQTTGAYSSVSQQDPALSVNIRGIQDYGRVNMNIDGMRQNFQKSGHGQRNGTMYIDSELLSGVTIDKGTTGGMGSAGTLGGIATFNTVSASDFLAPGKELGGKLHASTGDNGTHFIGSGILALGNETGDILLAASERHLGDYWPGNKGDIGNIRINNDTGNYDRYAESIKNNKIPDTHYRMHSRLAKVGWNLPANQRLQLSYLQTQTASPIAGTLTNLGTRPPYELGWKRTGYTDVMARNAAFDYSLAPEDVDWLDFQAKLYYVDTQDDSDTYSTSSLLDNGYATRTRLRTYGAQAQNTSRFSLAPGHDFRANYGLEFYYDKATSDSSRQGMEGVTPAGNRSVASLFANLTYDYDGWLTLEGGLRYDRYRLRGQTGLSYPDLAKDGQRYTIDNPCKALRLTGCSTTTREDWDVDRDQGKLSPTLAVAVRPGVEWLELYTTYGKSWRPPAITETLTNGSAHSSSTQYPNPFLQPERSRAWEVGFNVQQPDLWFEGDRLVAKVAYFDTKVDNYINLAIDRNKPGLVQPSIGNAAYVNNLSKTRFRGLEYQLNYDAGVFYADLTYTHMIGKNEFCSNKAWLGGRLRYGDGSRRGNFYVEPDAASNDFVTCDGGTQFGSAAYLPGDRGSVTLGGRAFDRKLDAGVTVRFAPGYQDSSVPSNYPYLADWPKYTLFDLYASYKLTDSLTLRGSVENLTNRAYVVSYGETLANTLGRGRTVQGGVEYRF,soluble
6,GPGSMAATTEVTPEHVLQLTAPSTGFLCPITANTYNIEFYSFVVRDADTKQVMFEVERDASTYPSVASLAQLPEEQQQAARTIFYRFPPSMLRKQRVSATLLFGVNGDKPVPDLRMIERHYFRNTLVKTFDFKFGFCIPHSRNTWEAVYDVPQFNAEWLEAIEKGTNEMTSDSFYFADGRLIMHNRAFYDYSAPEEEFTK,soluble
7,MGSDKIHHHHHHMIATTIAMDFCQTVTPSEIATVIDSYARGWFLMADEDSSDLGWYRSRDRCLIPLDNRFRYPRSLRRVLNQQRFEFAISRDFLGTIAGCADRPSTWISDELAEIYQQLQRYGWALSWEAWQGDRLVGGILGVAIGSLFIGESMFYHEPEASKAALVTLVQALQQGGWQVFDVQLTNPHLERFGSFCVSDRQYSAQIQTAIARPAKLVTPTGDRFASQPHSSAASDHG,not soluble
8,MGLHVPADQHDLDFTRLGPWFSVMVNGEGQRYKVSGQVTHVKPPQSVGFTWGWHDDDDRRGAESHVMFIVEPCAKGARLILDHRELGDDEMSLRHEEGWTSSLRKLAAELEHHHHHH,not soluble
9,MKKKNVVVFGGGTGLSVLLRGLKTFPVSITAIVTVADDGGSSGRLRKELDIPPPGDVRNVLVALSEVEPLLEQLFQHRFENGNGLSGHSLGNLLLAGMTSITGDFARGISEMSKVLNVRGKVLPASNRSIILHGEMEDGTIVTGESSIPKAGKKIKRVFLTPKDTKPLREGLEAIRKADVIVIGPGSLYTSVLPNLLVPGICEAIKQSTARKVYICNVMTQNGETDGYTASDHLQAIMDHCGVGIVDDILVHGEPISDTVKAKYAKEKAEPVIVDEHKLKALGVGTISDYFVLEQDDVLRHNASKVSEAILEGKPRTSSSIQAAALEHHHHHH,soluble
10,MAHHHHHHMRVASFCLPLHLLSFGAQARGCFRHSTGGSSSVFCAARPFRLSHTMAASACSSAVHLDNFRLLAAGHDATHAAPSSAPLTAPISFSLTFHFQRYDGADFESFISSLGVSVDFVADVASEQTTLTLLPLTPVSGPWARRDTAAANGAFLMAASASDSSTSSSDYAAGAPLDGAAGAAPGMMYQLRVYLSDFRALEKVQLKHLLQVSMMHVRLAHLGTSDGVGNSDSSDPRTEERSVAAWNVIWRVRRNPQNEQELIRTVLDPLA,not soluble
11,MAHHHHHHMESQKERGNAAYREKRYRDAINAYTAAIELDLTNVRMVATLRANQAAAKMELKEYSSALLDCEFAIQNGVNSAKLYARRARIHEALNNYDDALRDIQKASEMDGSYQREFQRTKASSKKAMRKDYYKILDLPPNESDDAQIKRAYKKACLRWHPDKWANAGPEEKTHAEKMFKDVGEAFSILSDAKKKRMYDNGMIDNAVEGAGESGFSGFPGQDEALMEMMNRMFFTGGGMSGGFGFNGFPQGRRQQYQQSYTFQFF,not soluble
12,MNFDVVIIGGGLAGLTCGIALQKQGKQCAIINNGQAAIDFSSGSMDLLSCLPSGQKVHVFCEAFSELSQQAPEHPYCLLGQHQVVAKVQQFEQFMQELGLVGSHKQNHLRVTPLGGLRHTWLSPKSVPVIAENEHFPYRQIAILGIEGYHDFQPQILVDNLKQNAAFSHCDFSIGYLNIPELDYLRQNAREFRSVNIAQLLEHKLAFEDLVQEIKQAAGNAQAVFLLACFGLDDQRFFDSLKQATALALFELPTLPPSLIGIRQYRTLRDQFEKLGGLLLNGDRAVRAEFDGDRVARIFTTLHQEESINAAHFVLASGSFFSNGLVAEFERVKEPIFDLDIIGNKAFINSERVSWTDKRFAAAQPYQSAGVAINHHCQVYKNGHLIPNLYAIGNVIGGFWGIEQGCASGVSVVTALTVAEWVGGTKLEHHHHHH,not soluble
13,MGSDKIHHHHHHVAPPTKGGLAEAENKMENKMTEQQGYWIGEAGKPWGEAEKAKWRAAQQKKRSYEQEVLSKFSQVSESFEAQQYGELNYAEGQYPLYGFKSRDWDQEKPTILVTGGVHGYETSGVQGALRFLIAKAAEYSQDFNILVAPCVSPWGYETINRWNPEAIDPNRSFYADSPAQESRALMQWVASFNLPLMAHIDLHETTDTDNSEFRPALAARDAKVQTNWNIPDGFYLVGDSENPNDEMQAAIIAAVGKVTHIAPADEQGRLIGEPITQFGVINYATKALGLCSGFSDARYNTTTEVYPDSPLVDDENCIQAQVMAVSSALDYIRSQG,not soluble
14,MGIRVKRRQHQHLLESLVHSTAKQQGDFTKTAELATELLCQNLAVSLVSIWIFSADQGTQSLVAQFGSMALQDTYRPSLLHTVPRYLNELKNYRHIDAGNTLIDPRLTELVDSYFIPRQILSSLDVGIRINGHLEGVLCIERAQVTHHWHDSEIHLACQMADQLALTLATKHAYDKEERLSLFRCAIEQSRQMSMLEHHHHHH,soluble
15,MAHHHHHHMLKCARYLFGPPNTKRKCAPLFSARNFSILERYIRAKPLSHELKIEEAKNEGIKGEGDRNGEERKASEKSASTYYPPNITRGVIPKSAYMNTWKIPEQPANPKFLKVALIGAPNAGKSSLLNSILNKTISAVSPKINTTRQDIKGIYTKDNVQLIFIDSPGIVPSHKKKKFCKELVSYAWKGYEEADLVLFIADTVKRPTHDVLNIIRMLAPKKVEAYSSGSEDEGETQHYMFNHPSEDHDQEEHFEWNGKPQSDLNSSSTNEELYEKSQKNVQKFVEYFSTAMEKEAKYSDKSVKENLLKNRKKIIESYSNDVDGKDSPNGEGEQQKLVPPVILVLNKVDLCTHNKWANARAKEFMSNGNFDNIFFISAKYNKGVEELLDYIAKFKAKNQFWVYPKDSNTTLTKVQVVEQLINTYLYCWFNKDVPYRVKHHMLSWCVNLNNSLIIEYQIVVKSPKVAKMICGVHNKLIINMRRNVSYKLTQLWGQNVYVHIHVKSVSA,not soluble
16,MAFYLPDWSCCGLWLFGRPRNRYSQLPEEPETFECPDRWRAEIDLGLPPGVQVGDLLRNEQTMGSLRQVYLLAVQANSITDHLKRFDAVRVPESCRGVVEAQVAKLEAVRSVIWNTMISLAVSGIEMDENGLKALLDKQAGDSLALMEMEKVATALKMDETGAWAQEISAVVSSVTAPSASAPFINSAFEPEVPTPVLAPPPVVRQPEHSGPTELALT,not soluble
17,MGSDKIHHHHHHMLARDKSNLKIEEIRMHKHHEIHRVKPLMPALCRIRQGKKVINWETHSLTVDNNQIILFPCGYEFYIVNYPEAGLYLAEMLYYPIDLIEKFQKFYAITDQIRNTTGFCLPQNPELIYCWEQLKTSISRGFSTQIQEHLAMGVLLSLGAHHVNCLLLSDSKQSLISRCYNLMLSEPRTKWTANKVARYLYISVSTLHRRLASEGISFQSILDDVRLNNALSCYTNDSKTHQRDCQGKWLQVSFSFY,not soluble
18,MLARLLLSFSVVLTAFGVGAAEVDKTQPYQMMKQVAEVTFARLKAEQPKIKQDPNLLKVIVEQELMPYVNDRYAALKLLGPNLKGAKREDVLEFVDAFRAYLIASYAQVLTQYSDQQIEFGPEPKLDDSKRITSIKVEIIDAPRPNIKLEFKLRKDNKTDEWEAFDMVAEGISLLSSKQSEWNTKIRQDGILAVAQDLEKLAAEPIRFEAKK,soluble
19,MGSDKIHHHHHHEATETQNEKVKVKVETVSVQDVEQLSEFTATVEANIKNNIAPQTPFRIEKIFAEVGDHVKAGQLLAKMDATSLKQAKIQLDNQEIEFKRIDELYKVGGASKSAWDAQKTSLEVARETYKNLVENTQLLSPISGIVTARNYDSGDMYSGGNPIYTVEEIRPVKLMVNVSESLFTKVKKGHEVDIRLDVYGDEVFKGKVNLVYPTIDPATRTFPVEIKIANSDERVRPGMFARVTMSFGHMDHVVAPDRSIVKQSGAGDRYIYVCKDGKVSYQKVKLGRRMGDKYEIISGVEDGDQVVITGQSRLTNGMEVEIENE,not soluble
